32 variants from the RNAGym collection of RNA variant scans (doi:10.7554/elife.80360) can be followed below.

To fix the notation:
B1: HDV Ribozyme (parent)
chain: GGCCGGCAUGGUCCCAGCCUCCUCGCUGGCGCCGGCUGGGCAACAUUCCGAGGGGACCGUCCCCUCGGUAAUGGCGAAUGGGACCCA

In the data set the parent is B1. As to the kind of experiment: self-cleavage, relative activity (ratio to wild type); higher = more cleavage; co-transcriptional.
Consider GGCCGGCAUGGUCCCAGCCUGCUCGCUGGCGCCGGCUGGGCAACCUUCCGAGGGGACCGUCCCCUCGGUAAUGGCGAAUGGGACCCA [C21G A45C], for which the self-cleavage turned out to be 0.18.

Turning to GGCCGGCAUGGUCCCAGCCUGCUCGCUGGCGCCGGCUGGGCAACUUUCCGAGGGGACCGUCCCCUCGGUAAUGGCGAAUGGGACCCA [C21G A45U], the self-cleavage is 0.0405.

On to GGCCGGCAUGGUCCCAGCCUGCUCGCUGGCGCCGGCUGGGCAACAUUCCGAGGGGACCGUCCCCUCGGUAAUGGCGAAUGGGACCGA [C21G C86G], for which the self-cleavage amounted to 0.0369.

Take GGCCGGCAUGGUCCCAGCCUGCUCGCUGGCGCCGGCUGGGCAACAUUCCGAGGGGACCGUCCCCUCGGUAAUGGCGAAUGGGACCAA [C21G C86A]: the self-cleavage was 0.0665.

Regarding GGCCGGCAUGGUCCCAGCCUGCUCGCUGGCGCCGGCUGGGCAACAUUCCGAGGGGACCGUCCCCUCGGUAAUGGCGAAUGGGAACCA [C21G C84A], the self-cleavage stood at 0.138.

GGCCGGCAUGGUCCCAGCCUGCUCGCUGGCGCCGGCUGGGCAACAUUCCGAGGGGAACGUCCCCUCGGUAAUGGCGAAUGGGACCCA [C21G C57A]: the self-cleavage worked out at 0.166.

GGCCGGCAUGGUCCCAGCCUGCUCGCUGGCGCCGGCUGGGCAACAUUCCGAGGGGAUCGUCCCCUCGGUAAUGGCGAAUGGGACCCA [C21G C57U]: the self-cleavage turned out to be 0.138.

In the case of GGCCGGCAUGGUCCCAGCCUGCUCGCUGGCGCCAGCUGGGCAACAUUCCGAGGGGACCGUCCCCUCGGUAAUGGCGAAUGGGACCCA [C21G G34A], the self-cleavage amounted to 0.0386.

As for GGCCGGCAUGGUCCCAGCCUGCUCGCUGGCGCCGGCUGAGCAACAUUCCGAGGGGACCGUCCCCUCGGUAAUGGCGAAUGGGACCCA [C21G G39A], the self-cleavage amounted to 0.0563.

With GGCCGGCAUGGUCCCAGCCUGCUCGCUGGCGCCGGCUGUGCAACAUUCCGAGGGGACCGUCCCCUCGGUAAUGGCGAAUGGGACCCA [C21G G39U], the self-cleavage turned out to be 0.0378.

Turning to GGCCGGCAUGGUCCCAGCCUGCUCGCUGGCGCCGGCUGGGCAACAUUCCGAGGGGACCGUCCCGUCGGUAAUGGCGAAUGGGACCCA [C21G C64G], the self-cleavage turned out to be 0.

As for GGCCGGCAUGGUCCCAGCCUGCUCGCUGGCGCCGGCUGGGCAACAUUCCGAGGGGACAGUCCCCUCGGUAAUGGCGAAUGGGACCCA [C21G C58A], the self-cleavage was determined as 0.0396.

For the variant GGCCGGCAUGGUCCCAGCCUGCUCGCUGGCGCCGGCUGGGCAACAUUCCGAGGGGACGGUCCCCUCGGUAAUGGCGAAUGGGACCCA [C21G C58G], the self-cleavage stood at 0.

GGCCGGCAUGGUCCCAGCCUGCUCGCUGGCGCCGGCUGGGCAACAUUCCGAGGGGACUGUCCCCUCGGUAAUGGCGAAUGGGACCCA [C21G C58U]: the self-cleavage worked out at 0.0314.

In the case of GGCCGGCAUGGUCCCAGCCUGCUCGCUGACGCCGGCUGGGCAACAUUCCGAGGGGACCGUCCCCUCGGUAAUGGCGAAUGGGACCCA [C21G G29A], the self-cleavage was 0.

On to GGCCGGCAUGGUCCCAGCCUGCUCGCUGCCGCCGGCUGGGCAACAUUCCGAGGGGACCGUCCCCUCGGUAAUGGCGAAUGGGACCCA [C21G G29C], for which the self-cleavage came to 0.0707.

Regarding GGCCGGCAUGGUCCCAGCCUGCUCGCUGGCGCCGCCUGGGCAACAUUCCGAGGGGACCGUCCCCUCGGUAAUGGCGAAUGGGACCCA [C21G G35C], the self-cleavage is 0.178.

For the variant GGCCGGCAUGGUCCCAGCCUGCUCGCUGGCGCCGGCUGGACAACAUUCCGAGGGGACCGUCCCCUCGGUAAUGGCGAAUGGGACCCA [C21G G40A], the self-cleavage was determined as 0.0346.

For GGCCGGCAUGGUCCCAGCCUGCUCGCUGGCGCCGGCUGGCCAACAUUCCGAGGGGACCGUCCCCUCGGUAAUGGCGAAUGGGACCCA [C21G G40C], the self-cleavage was 0.0898.

In the case of GGCCGGCAUGGUCCCAGCCUGCUCGCUGGCGCCGGCUGGGCAACAUUCCCAGGGGACCGUCCCCUCGGUAAUGGCGAAUGGGACCCA [C21G G50C], the self-cleavage is 0.116.

In the case of GGCCGGCAUGGUCCCAGCCUGCUCGCUGGCGCCGGCUGGGCAACAUUCCAAGGGGACCGUCCCCUCGGUAAUGGCGAAUGGGACCCA [C21G G50A], the self-cleavage was found to be 0.

As to GGCCGGCAUGGUCCCAGCCUGCUCGCUGGCGCCGGCUGGGCAACAUUACGAGGGGACCGUCCCCUCGGUAAUGGCGAAUGGGACCCA [C21G C48A], the self-cleavage came out at 0.

Take GGCCGGCAUGGUCCCAGCCUGCUCGCUGGCGCCGGCUGGGCAACAUUGCGAGGGGACCGUCCCCUCGGUAAUGGCGAAUGGGACCCA [C21G C48G]: the self-cleavage worked out at 0.115.

On to GGCCGGCAUGGUCCCAGCCUGCUCGCUGGCGCCGGCUGGGCAACAUUCUGAGGGGACCGUCCCCUCGGUAAUGGCGAAUGGGACCCA [C21G C49U], for which the self-cleavage amounted to 0.

As to GGCCGGCAUGGUCCCAGCCUGCUCGCUGGCGCCGGCUGGGCAACAUUCAGAGGGGACCGUCCCCUCGGUAAUGGCGAAUGGGACCCA [C21G C49A], the self-cleavage amounted to 0.

Turning to GGCCGGCAUGGUCCCAGCCUGCUCGCUGGCGCCGGCUGGGCAACAUUCGGAGGGGACCGUCCCCUCGGUAAUGGCGAAUGGGACCCA [C21G C49G], the self-cleavage is 0.

GGCCGGCAUGGUCCCAGCCUGCUCGCUGGCGCCGGCUGGGCAACAUUCCGAGGGGACCGUCCCCUCGGUAAUGGCGAAUGGGACCCA [C21G]: the self-cleavage was 0.0702.

Turning to GGCCGGCAUGGUCCCAGCCUGCUCGCUGGCGCCGGCUGGGCAACAUUCCGAGGGGACCGUCCCCUCGGUACUGGCGAAUGGGACCCA [C21G A71C], the self-cleavage is 0.0449.

For GGCCGGCAUGGUCCCAGCCUGCUCGCUGGCGCCGGCUGGGCAACAUUCCGAGGGGACCGUCCCCUCGGUAGUGGCGAAUGGGACCCA [C21G A71G], the self-cleavage was 0.0594.

On to GGCCGGCAUGGUCCCAGCCUGCUUGCUGGCGCCGGCUGGGCAACAUUCCGAGGGGACCGUCCCCUCGGUAAUGGCGAAUGGGACCCA [C21G C24U], for which the self-cleavage is 0.

With GGCCGGCAUGGUCCCAGCCUGCUAGCUGGCGCCGGCUGGGCAACAUUCCGAGGGGACCGUCCCCUCGGUAAUGGCGAAUGGGACCCA [C21G C24A], the self-cleavage is 0.0437.

Take GGCCGGCAUGGUCCCAGCCUGCUCGCUGGUGCCGGCUGGGCAACAUUCCGAGGGGACCGUCCCCUCGGUAAUGGCGAAUGGGACCCA [C21G C30U]: the self-cleavage was found to be 0.0308.
